Measurements reported in paper PMC8359183, “The periplasmic domains of Vibriocholerae ToxR and ToxS are forming a strong heterodimeric complex independent on the redox state of ToxR cysteines” (Molecular Microbiology, 2021).

Experiments:
[1] = target: T1, periplasmic domain of Vibrio cholerae ToxS (ToxSp) (Vibrio cholerae); assay: SEC-MALS; details: both partners purified
T1 chain: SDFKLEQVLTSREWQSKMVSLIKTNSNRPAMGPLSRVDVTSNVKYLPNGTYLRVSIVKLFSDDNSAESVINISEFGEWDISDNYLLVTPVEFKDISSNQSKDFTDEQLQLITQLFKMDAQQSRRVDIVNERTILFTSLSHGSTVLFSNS

[2] = target: T2, ToxSp H10_S11insC labelled with 5-iodoacetamidofluorescein (Vibrio cholerae); assay: fluorescence polarisation; details: both partners purified
T2 construct: also called FITC ToxSp H10_S11insC
T2 chain: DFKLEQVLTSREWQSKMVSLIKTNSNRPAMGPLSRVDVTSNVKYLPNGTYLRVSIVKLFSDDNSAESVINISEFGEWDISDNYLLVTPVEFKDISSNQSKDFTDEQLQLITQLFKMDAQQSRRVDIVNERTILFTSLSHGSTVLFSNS

B1: periplasmic domain of Vibrio cholerae ToxR, oxidized, with an intramolecular disulfide bond (ToxRp-ox) (domain or fragment)
chain: PSQTSFKPLTVVDGVAVNMPNNHPDLSNWLPSIELCVKKYNEKHTGGLKPIEVIATGGQNNQLTLNYIHSPEVSGENITLRIVANPNDAIKVCE
notes: also called pToxR-ox; ToxRp-ox-V.c
In the case of B1, the “stoichiometry N” value [1] is reported as 1 ToxRp per ToxSp and the Kd [2] is reported as 11.6 ± 3.4 nM.
